Reference: patent US20240279318A1 (NANJING LEGEND BIOTECH, published 2024)

Assays:
[1] = biological target: T1, AFP158/HLA-A*02:01 complex (human); test: SPR, KD ratio to AS170036 VL1VH1;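 note: crude scFv captured on a sensor chip, peptide–HLA complex passed over at several concentrations, association then buffer dissociation, KD derived from on- and off-rates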
T1 construct: flowed over the chip in SPR; also called AFP158 pro

[2] = biological target: T1, AFP158/HLA-A*02:01 complex; test: SPR, scFv captured, pMHC in flow;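 note: complex injected at several concentrations over crude scFv, association then running-buffer dissociation, KD estimated from kinetic on- and off-rate constants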
Procedure: The experiment was carried out as follows. The crude scFv protein were captured onto the sensorchip. Different concentrations (320, 160, 40 nM) of AFP158/HLA-A*02:01 complex flowed over the sensorchip surface, and were allowed to bind the antibody fragment for 100 s followed by injection of the running buffer to allow dissociation of the complex. On-rate (kd) and off-rate (kd) were calculated based on association and dissociation curve, and were used to estimate the equilibrium dissociation constant (KD).

| Affinity increase [1] [fold] | Kd [2] [nM] | Binder |
| --- | --- | --- |
| 1.8 | 150 | HP110E (scFv, AS170036 VL1VH1 scFv mutein) scFv: QSALTQPRSVSGSPGQSVTISCAGTSSDVGSENYVSWYQQHPGKAPKLMIYQVNKRASGVPDRFSGSKSGNTASLTISGLQAEDEADYYCASYRSSDHNIVFGGGTKLTVLGGGGSGGGGSGGGGSEVQLVESGGGLVQPGGSLRLSCAASGFTFSSYAMSWVRQAPGKGLEWVSTINSGTGSPYYADSVKGRFTISRDNSKNTLYLQMNSLRAEDTAVYYCAKNFFDGSWFLGPEAMDYWGQGTLVTVSSHHHHHH |
| 4.4 | 56 | HS57K (scFv, AS170036 VL1VH1 scFv mutein; also called AS170036 VL1VH1-VHS57K) scFv: QSALTQPRSVSGSPGQSVTISCAGTSSDVGSENYVSWYQQHPGKAPKLMIYQVNKRASGVPDRFSGSKSGNTASLTISGLQAEDEADYYCASYRSSDHNIVFGGGTKLTVLGGGGSGGGGSGGGGSEVQLVESGGGLVQPGGSLRLSCAASGFTFSSYAMSWVRQAPGKGLEWVSTINSGTGKPYYADSVKGRFTISRDNSKNTLYLQMNSLRAEDTAVYYCAKNFFDGSWFLGPPAMDYWGQGTLVTVSSHHHHHH |
| 0.9 | 300 | HP110Q (scFv, AS170036 VL1VH1 scFv mutein) scFv: QSALTQPRSVSGSPGQSVTISCAGTSSDVGSENYVSWYQQHPGKAPKLMIYQVNKRASGVPDRFSGSKSGNTASLTISGLQAEDEADYYCASYRSSDHNIVFGGGTKLTVLGGGGSGGGGSGGGGSEVQLVESGGGLVQPGGSLRLSCAASGFTFSSYAMSWVRQAPGKGLEWVSTINSGTGSPYYADSVKGRFTISRDNSKNTLYLQMNSLRAEDTAVYYCAKNFFDGSWFLGPQAMDYWGQGTLVTVSSHHHHHH |
| 0.8 | 300 | HP110S (scFv, AS170036 VL1VH1 scFv mutein) scFv: QSALTQPRSVSGSPGQSVTISCAGTSSDVGSENYVSWYQQHPGKAPKLMIYQVNKRASGVPDRFSGSKSGNTASLTISGLQAEDEADYYCASYRSSDHNIVFGGGTKLTVLGGGGSGGGGSGGGGSEVQLVESGGGLVQPGGSLRLSCAASGFTFSSYAMSWVRQAPGKGLEWVSTINSGTGSPYYADSVKGRFTISRDNSKNTLYLQMNSLRAEDTAVYYCAKNFFDGSWFLGPSAMDYWGQGTLVTVSSHHHHHH |
| 2.4 | 100 | HS57Q (scFv, AS170036 VL1VH1 scFv mutein; also called AS170036 VL1VH1-VHS57Q) scFv: QSALTQPRSVSGSPGQSVTISCAGTSSDVGSENYVSWYQQHPGKAPKLMIYQVNKRASGVPDRFSGSKSGNTASLTISGLQAEDEADYYCASYRSSDHNIVFGGGTKLTVLGGGGSGGGGSGGGGSEVQLVESGGGLVQPGGSLRLSCAASGFTFSSYAMSWVRQAPGKGLEWVSTINSGTGQPYYADSVKGRFTISRDNSKNTLYLQMNSLRAEDTAVYYCAKNFFDGSWFLGPPAMDYWGQGTLVTVSSHHHHHH |
| 1.3 | 180 | HP110T (scFv, AS170036 VL1VH1 scFv mutein) scFv: QSALTQPRSVSGSPGQSVTISCAGTSSDVGSENYVSWYQQHPGKAPKLMIYQVNKRASGVPDRFSGSKSGNTASLTISGLQAEDEADYYCASYRSSDHNIVFGGGTKLTVLGGGGSGGGGSGGGGSEVQLVESGGGLVQPGGSLRLSCAASGFTFSSYAMSWVRQAPGKGLEWVSTINSGTGSPYYADSVKGRFTISRDNSKNTLYLQMNSLRAEDTAVYYCAKNFFDGSWFLGPTAMDYWGQGTLVTVSSHHHHHH |
| 6.9 | 35 | HS57H (scFv, AS170036 VL1VH1 scFv mutein; also called AS170036 VL1VH1-VHS57H) scFv: QSALTQPRSVSGSPGQSVTISCAGTSSDVGSENYVSWYQQHPGKAPKLMIYQVNKRASGVPDRFSGSKSGNTASLTISGLQAEDEADYYCASYRSSDHNIVFGGGTKLTVLGGGGSGGGGSGGGGSEVQLVESGGGLVQPGGSLRLSCAASGFTFSSYAMSWVRQAPGKGLEWVSTINSGTGHPYYADSVKGRFTISRDNSKNTLYLQMNSLRAEDTAVYYCAKNFFDGSWFLGPPAMDYWGQGTLVTVSSHHHHHH |
| 1.2 | 200 | HS57D (scFv, AS170036 VL1VH1 scFv mutein) scFv: QSALTQPRSVSGSPGQSVTISCAGTSSDVGSENYVSWYQQHPGKAPKLMIYQVNKRASGVPDRFSGSKSGNTASLTISGLQAEDEADYYCASYRSSDHNIVFGGGTKLTVLGGGGSGGGGSGGGGSEVQLVESGGGLVQPGGSLRLSCAASGFTFSSYAMSWVRQAPGKGLEWVSTINSGTGDPYYADSVKGRFTISRDNSKNTLYLQMNSLRAEDTAVYYCAKNFFDGSWFLGPPAMDYWGQGTLVTVSSHHHHHH |
| 2.7 | 90 | HS57M (scFv, AS170036 VL1VH1 scFv mutein; also called AS170036 VL1VH1-VHS57M) scFv: QSALTQPRSVSGSPGQSVTISCAGTSSDVGSENYVSWYQQHPGKAPKLMIYQVNKRASGVPDRFSGSKSGNTASLTISGLQAEDEADYYCASYRSSDHNIVFGGGTKLTVLGGGGSGGGGSGGGGSEVQLVESGGGLVQPGGSLRLSCAASGFTFSSYAMSWVRQAPGKGLEWVSTINSGTGMPYYADSVKGRFTISRDNSKNTLYLQMNSLRAEDTAVYYCAKNFFDGSWFLGPPAMDYWGQGTLVTVSSHHHHHH |
| 0.6 | 400 | HP110V (scFv, AS170036 VL1VH1 scFv mutein) scFv: QSALTQPRSVSGSPGQSVTISCAGTSSDVGSENYVSWYQQHPGKAPKLMIYQVNKRASGVPDRFSGSKSGNTASLTISGLQAEDEADYYCASYRSSDHNIVFGGGTKLTVLGGGGSGGGGSGGGGSEVQLVESGGGLVQPGGSLRLSCAASGFTFSSYAMSWVRQAPGKGLEWVSTINSGTGSPYYADSVKGRFTISRDNSKNTLYLQMNSLRAEDTAVYYCAKNFFDGSWFLGPVAMDYWGQGTLVTVSSHHHHHH |
| 1 | 260 | HP110G (scFv, AS170036 VL1VH1 scFv mutein) scFv: QSALTQPRSVSGSPGQSVTISCAGTSSDVGSENYVSWYQQHPGKAPKLMIYQVNKRASGVPDRFSGSKSGNTASLTISGLQAEDEADYYCASYRSSDHNIVFGGGTKLTVLGGGGSGGGGSGGGGSEVQLVESGGGLVQPGGSLRLSCAASGFTFSSYAMSWVRQAPGKGLEWVSTINSGTGSPYYADSVKGRFTISRDNSKNTLYLQMNSLRAEDTAVYYCAKNFFDGSWFLGPGAMDYWGQGTLVTVSSHHHHHH |
| 1.5 | 170 | HS57N (scFv, AS170036 VL1VH1 scFv mutein) scFv: QSALTQPRSVSGSPGQSVTISCAGTSSDVGSENYVSWYQQHPGKAPKLMIYQVNKRASGVPDRFSGSKSGNTASLTISGLQAEDEADYYCASYRSSDHNIVFGGGTKLTVLGGGGSGGGGSGGGGSEVQLVESGGGLVQPGGSLRLSCAASGFTFSSYAMSWVRQAPGKGLEWVSTINSGTGNPYYADSVKGRFTISRDNSKNTLYLQMNSLRAEDTAVYYCAKNFFDGSWFLGPPAMDYWGQGTLVTVSSHHHHHH |
| 1.4 | 180 | HS57F (scFv, AS170036 VL1VH1 scFv mutein) scFv: QSALTQPRSVSGSPGQSVTISCAGTSSDVGSENYVSWYQQHPGKAPKLMIYQVNKRASGVPDRFSGSKSGNTASLTISGLQAEDEADYYCASYRSSDHNIVFGGGTKLTVLGGGGSGGGGSGGGGSEVQLVESGGGLVQPGGSLRLSCAASGFTFSSYAMSWVRQAPGKGLEWVSTINSGTGFPYYADSVKGRFTISRDNSKNTLYLQMNSLRAEDTAVYYCAKNFFDGSWFLGPPAMDYWGQGTLVTVSSHHHHHH |
| 1.2 | 210 | HS57A (scFv, AS170036 VL1VH1 scFv mutein) scFv: QSALTQPRSVSGSPGQSVTISCAGTSSDVGSENYVSWYQQHPGKAPKLMIYQVNKRASGVPDRFSGSKSGNTASLTISGLQAEDEADYYCASYRSSDHNIVFGGGTKLTVLGGGGSGGGGSGGGGSEVQLVESGGGLVQPGGSLRLSCAASGFTFSSYAMSWVRQAPGKGLEWVSTINSGTGAPYYADSVKGRFTISRDNSKNTLYLQMNSLRAEDTAVYYCAKNFFDGSWFLGPPAMDYWGQGTLVTVSSHHHHHH |
